Measurements reported in patent publication US20240228986A1, “ENGINEERED CELLS, ENZYMES, AND METHODS FOR PRODUCING CANNABINOIDS” (priority 2021, published 2024).

Key:
Type in all cases: cell-based, Yarrowia
divarinic acid = experiment: Unfused rMPTs and APTs, CBGVA/FCBGVA formation in vivo assay (Example 4); conditions: 2 mM divarinic acid, 48 hour quench; for CBGVA / FCBGVA: 2% glucose, strain sCL-SE-0128
Protocol: (§1) As described below, plasmids pCL-SE-0380 (MPT4), pCL-SE-0337.MPT4, pCL-SE-0338.APT73.74, and pCL-SE-0338.APT73.77 were transformed into strain sCL-SE-0128. Multiple colonies per transformation were precultured for 48 h in YNB containing glucose (2%), casamino acids (0.5%), and MES (100 mM pH 6.5). Pre-culture was used to inoculate assay medium comprised of YNB containing glucose (2%), casamino acids (0.5%), MES (100 mM pH 6.5), and olivetolic acid or divarinic acid (2 mM). Cultures were quenched with equal volume of ethanol after 48 h total growth and assayed for CBG(V)A and FCBG(V)A. Averages and standard deviations were calculated from replicates.
(§2) Overnight YPD (10 g/L yeast extract, 20 g/L peptone, 2% dextrose) cultures were inoculated from glycerol stocks of the appropriate strain and grown at 30° C. with 250 rpm shaking. Once cultures had reached an OD600 of 4-6, cultures were centrifuged at 500×g for 5 min, supernatants were discarded, and cell pellets were resuspended in equal volume of water. Resuspended cells were centrifuged at 500×g for 5 min, supernatants were discarded, and cells were resuspended in a volume (75 μL×OD×Vculture) of transformation cocktail (45% PEG-400, 0.1 M LiAc, 0.1 M DTT, and 25 ug/100 μL SS Salmon Sperm DNA). For each transformation, >1 μg of plasmid DNA was added to 55 μL cells/transformation cocktail and vortexed for 2 s. Transformations were incubated at 39° C. for 1 h with 250 rpm shaking. Transformations were resuspended in 750 μL YPD with 1 M sorbitol and recovered at 30° C. overnight with 250 rpm shaking. The next day, transformations were centrifuged at 500×g for 5 min, supernatants were discarded, and cell pellets were resuspended in 750 YPD. Resuspended transformations were plated on YPD with appropriate selection or YNBD (6.71 g/L yeast nitrogen base+nitrogen, 0.5% casamino acids, 2% dextrose) agar plates and grown at 30° C. for 2 days. Individual colonies were patched onto YPD plates with appropriate selection or YNBD plates and grown at 30° C. overnight. Patches were used to inoculate 0.5 mL YPD with appropriate selection or YNBD precultures in 96 w blocks and grown at 30° C. for 24-48 h with 1000 rpm shaking. For assays, 0.5 mL YPD with appropriate selection or YNBD cultures containing substrate were inoculated with 2 μL from precultures and grown at 30° C. for 2-4 days with 1000 rpm shaking with 2% glucose added every 24 h. Assay cultures were quenched by addition of 0.5 mL ethanol with 0.2% formic acid and 0.5 mg/mL pentyl-benzoic acid. Precipitates were pelleted by centrifuging at 4600×g for 10 min and then 200 μL was transferred to fresh plates, sealed, and analyzed via HPLC.
(§3) All samples were quenched with equal volume of EtOH containing 0.2 mg/mL internal standard (3,5-Diisopropyl-2-hydroxybenzoic acid CAS #2215-21-6) centrifuged, and clarified solutions were analyzed by HPLC-MS
(§4) • Column: 2.1×50 mm COSMOCORE PBr (Nacalai USA, Inc.) • Mobile Phase: A; 0.1% formic acid in water, B; 0.1% formic acid in acetonitrile • Flow: 0.45 mL/min • Temp: % 50 Celsius • Gradient: 20%B at 0 min, 70%B at 2.3 min, 89% B at 4.2 min, 20% B at 4.3 min, 20%B at 6 min

olivetolic acid [1] = experiment: Unfused rMPTs and APTs, CBGA/FCBGA formation in vivo assay (Example 4); conditions: for CBGA / FCBGA / CBGA/FCB: 2 mM olivetolic acid, 48 h quench; for CBGA / FCBGA: 2% glucose, strain sCL-SE-0128; for CBGA/FCB: product ratio
Protocol: as §1, §2, §3, §4

olivetolic acid [2] = experiment: GPS-APT fusions, OA feed in vivo assay (Example 11)
Protocol: as §1, with “plasmids pCL-SE-0406, pCL-SE-0664, pCL-SE-0663, pCL-SE-0662,” for “plasmids”, “pCL-SE-0337.MPT21, pCL-SE-0337.MPT26,” for “pCL-SE-0337.MPT4, pCL-SE-0338.APT73.74,”, “pCL-SE-0337.MPT31” for “pCL-SE-0338.APT73.77”, “acid” for “acid or divarinic acid”, “CBGA” for “CBG(V)A”, “FCBGA.” for “FCBG(V)A.”
Soluble prenyl transferase APT73.77 was fused with GPS1.1 at the N- or C-terminus with different linkers creating the plasmids shown in Table 14. These fusion proteins were expressed and screened as described in Example 8 (olivetolic acid feed)
as §2, §3, §4

olivetolic acid [3] = experiment: GPS1.1 fusions of MPT21 mutants, OA feed (Example 8, Table 10); conditions: in words; mutagenesis of MPT21, tested as GPS1.1-F11 fusions
Protocol: as §2, §3, §4

olivetolic acid [4] = experiment: MPT4.1 with and without GPS1.1 fusion vs MPT4 fusion, in vivo assay (Example 5); conditions: 3 mM olivetolic acid, 48 h quench
Protocol: As described below, plasmids pCL-SE-0337.MPT4.1 and pCL-SE-0753 were transformed into strain sCL-SE-0128. Multiple colonies per transformation were precultured for 24 h in YNB containing glucose (2%), casamino acids (0.5%), and MES (100 mM pH 6.5). Pre-culture was used to inoculate assay medium comprised of YNB containing glucose (6%), casamino acids (0.5%), MES (100 mM pH 6.5), and olivetolic acid (3 mM). Cultures were quenched with equal volume of ethanol after 48 h total growth and assayed for CBGA and FCBGA. Averages and standard deviations were calculated from replicates.
as §2, §3, §4

[5] = in words, between APT73 mutants
[6] = olivetolic acid feed as in Example 8, 48 h quench, strain sCL-SE-0128

| Molecule | CBGVA (divarinic acid) | FCBGVA (divarinic acid) | CBGA (olivetolic acid [1]) | FCBGA (olivetolic acid [1]) | CBGA/FCB (olivetolic acid [1]) | ratio of CBGA/FCBGA (olivetolic acid [3]) | also measured |
| --- | --- | --- | --- | --- | --- | --- | --- |
| APT73.74: recombinant soluble aromatic prenyltransferase, SEQ ID NO: 37 (protein, APT73.74 (mutant soluble aromatic prenyltransferase)) MDEVYAAVEQTSRLLDVPCSPDRFEPVWKAFGDQLPDSHLVFSMAAGEAHRGELDFDFSLRPEGADPYTTALEHGFIEPTDHPVGSVLAEVGKRFAIASYGVEYGVVGGFKKSYAFFPLDDFPPLAQFAEVPSVPPCLAGHVETLTRLGFDDKVSIIGVNYRKNTLNVYLAASAVDTGDKLALLRAFGYPEPDARVRQFIERSFRLYPTFNWDSSAAERICFAVHTQQPGELPAPHDEPTEAFARQVPHVYEGGREFVSGVALAPSGASYYKLAALYQKARRCLH | 10 ± 0 µM | 0 ± 0 µM | 123 ± 5 µM | 18 ± 1 µM | 6.7 |  | selectivity (CBGA/FCBGA) (olivetolic acid [1]; [5]): better selectivity |
| APT73.77: recombinant soluble aromatic prenyltransferase, SEQ ID NO: 38 (protein, APT73.77 (mutant soluble aromatic prenyltransferase)) MDEVYAAVEQTSRLLDVPCSPDRFEPVWKAFGDQLPDSHLVFSMAAGEAHRGELDFDFSLRPEGADPYTTALEHGFIEPTDHPVGSVLAEVGKRFAIASYGVEYGVVGGFKKSYAFFPLDDFPPLAQFAEVPSVPPCLAGHVETLTRLGFDDKVSIIGVNYRKNTLNVYLAASAVDTGDKLALLRAFGYPEPDARVRQFIERSFRLYPTFNWDSSAAERICFAVHTQQPGELPAPHDEPTEAFARQVPHVYEGGREFVSGVALAPSGASYYKLAALYQKARRCLD | 10 ± 1 µM | 1 ± 1 µM | 145 ± 13 µM | 55 ± 3 µM | 2.6 |  | CBGVA/FCBGVA (divarinic acid; product ratio): 12.5; CBGA (olivetolic acid [2]; [6]): 215 ± 11 µM; FCBGA (olivetolic acid [2]; [6]): 32 ± 1 µM; CBGA/FCBG (olivetolic acid [2]; olivetolic acid feed, 48 h quench, product ratio): 6.8; overall activity (CBGA+FCBGA) (olivetolic acid [1]; [5]): better overall activity |
| MPT21.8 (protein, MPT21.8 (recombinant membrane-bound prenyltransferase)) MSDNSIATKILNFGHTCWKLQRPYVVKGMISIACGLFGKELLHNTNLISWGLMWKAFFALVPILSFNFFAGIMNQIYDVDIDRINKPDLPLVSGEMSIETAWILSIIVALTGLIVTIKLKSAPLFVFIYIFGIFAGFAYSVPPIRWKQNPSTNFLITISSHVGLAFTSYYASRAALGLPFELRPSFTFLLAFMTVMGMTIAFAKDISDIEGDAKYGVSTVATKLGARNMTFVVSGVLLLNYVAAILAGIIWPQAFNSNVMLLSHAILAFCLIFQTRELALANYASAPSRQFFEFIWLLYYAEYFVYVFI |  |  |  |  |  | improved ratio of CBGA/FCBGA |  |
| MPT21.10 (protein, MPT21.10 (recombinant membrane-bound prenyltransferase)) MSDNSIATKILNFGHTCWKLQRPYVVKGMISIACGLFGKELLHNTNLISWGLMWKAFFALVPILSFNFFAAIMNQIYDVDMDRINKPDLPLVSGEMSIETAWILSIIVALTGLIVTIKLKSAPLFVFIYIFGIFAGFAYSVPPIRWKQNPSTNFLITISSHVGLAFTSYYASRAALGLPFELRPSFTFLLAFMTVMGMTIAFAKDISDIEGDAKYGVSTVATKLGARNMTFVVSGVLLLNYVAAILAGIIWPQAFNSNVMLLSHAILAFCLIFQTRELALANYASAPSRQFFEFIWLLYYAEYFVYVFI |  |  |  |  |  | improved ratio of CBGA/FCBGA |  |
| MPT4.1 (protein, MPT4.1 (point mutant, membrane-bound prenyltransferase)) MSDNSIATKILNFGHTCWKLQRPYAVKGMISIACGLFGRELFNNRHLFSWGLMWKAFFALVPILSFNFFAAIMNQIYDVDIDRINKPDLPLVSGEMSIETAWILSIIVALTGLIVTIKLKSAPLFVFIYIFGIFAGFAYSVPPIRWKQYPFTNFLITISSHVGLAFTSYSATTSALGLPFVWRPAFSFIIAFMTVMGMTIAFAKDISDIEGDAKYGVSTVATKLGARNMTFVVSGVLLLNYLVSISIGIIWPQVFKSNIMILSHAILAFCLIFQTRELALANYASAPSRQFFEFIWLLYYAEYFVYVFI | 28 ± 8 µM | 0 ± 0 µM | 168 ± 33 µM | 11 ± 2 µM | 14.6 |  | CBGA (olivetolic acid [4]; 6% glucose, strain sCL-SE-0128): 253 ± 18 µM; FCBGA (olivetolic acid [4]; 6% glucose, strain sCL-SE-0128): 26 ± 2 µM; CBGA/FCBGA (olivetolic acid [4]; product ratio): 9.7; FCBGA byproduct compared to MPT4 (olivetolic acid [1]; in words, OA feed, 48 h): less FCBGA byproduct; activity towards CBGA formation compared to MPT4 (olivetolic acid [1]; in words, OA feed, 48 h): increased activity towards CBGA formation |
